Tests used:
vitronectin [1] = biological target: T1, vitronectin (UniProt P04004 20-478); assay: [^125I]-IGF-I bound to VN-coated wells with 2 ng of the non-glycosylated IGFBP-3 mutant; IGFBP:VN binding read through labelled IGF-I
T1 construct: also called VN

vitronectin [2] = biological target: T1, vitronectin; assay: [^125I]-IGF-I bound to VN-coated wells (300 ng/well) with 5 ng IGFBP; IGFBP:VN binding read through labelled IGF-I

T1 sequence (P04004 20-478 limits assumed): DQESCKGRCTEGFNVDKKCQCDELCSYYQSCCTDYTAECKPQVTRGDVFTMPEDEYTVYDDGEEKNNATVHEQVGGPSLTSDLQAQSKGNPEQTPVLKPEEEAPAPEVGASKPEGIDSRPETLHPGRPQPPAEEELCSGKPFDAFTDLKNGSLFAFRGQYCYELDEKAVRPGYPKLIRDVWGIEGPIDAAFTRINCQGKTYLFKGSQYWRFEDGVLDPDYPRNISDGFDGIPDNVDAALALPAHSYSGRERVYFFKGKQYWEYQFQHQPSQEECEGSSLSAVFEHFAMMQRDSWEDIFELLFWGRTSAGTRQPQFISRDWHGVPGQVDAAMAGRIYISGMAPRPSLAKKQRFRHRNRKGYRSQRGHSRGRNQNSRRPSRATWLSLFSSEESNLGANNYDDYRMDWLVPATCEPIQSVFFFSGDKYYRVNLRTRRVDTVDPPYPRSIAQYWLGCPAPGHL

| Binder | fold increase in binding of labelled IGF-I to VN-coated wells (vitronectin [1]) [fold] | fold increase in binding of labelled IGF-I to VN-coated wells against wells without IGFBP (vitronectin [2]) [fold] |
| --- | --- | --- |
| IGFBP-3 glycosylation mutant (Non-gly IGFBP-3) (other, UniProt P17936 28-291, looked up, non-glycosylated (glycosylation sites mutated), they probably count on mature IGFBP-3; also called non-glycosylated IGFBP-3 mutant; mutant IGFBP-3) GASSAGLGPVVRCEPCDARALAQCAPPPAVCAELVREPGCGCCLTCALSEGQPCGIYTERCGSGLRCQPSPDEARPLQALLDGRGLCVAASAVSRLRAYLLPAPPAPGAASESEEDRSAGSVESPSVSSTHRVSDPKFHPLHSKIIIIKKGHAKDSQRYKVDYESQSTDTQAFSSESKRETEYGPCRREMEDTLNHLKFLNVLSPRGVHIPNCDKKGFYKKKQCRPSKGRKRGFCWCVDKYGQPLPGYTTKGKEDVHCYSMQSK | 20 | – |
| recombinant IGFBP-4 produced in mammalian cells (other, UniProt P22692 22-258, looked up) DEAIHCPPCSEEKLARCRPPVGCEELVREPGCGCCATCALGLGMPCGVYTPRCGSGLRCYPPRGVEKPLHTLMHGQGVCMELAEIEAIQESLQPSDKDEGDHPNNSFSPCSAHDRRCLQKHFAKIRDRSTSGGKMKVNGAPREDARPVPQGSCQSELHRALERLAASQSRTHEDLYIIPIPNCDRNGNFHPKQCHPALDGQRGKCWCVDRKTGVKLPGGLEPKGELDCHQLADSFRE | – | ~3.8 |
| recombinant IGFBP-2 produced in mammalian cells (other, UniProt P18065 36-325, looked up) AEVLFRCPPCTPERLAACGPPPVAPPAAVAAVAGGARMPCAELVREPGCGCCSVCARLEGEACGVYTPRCGQGLRCYPHPGSELPLQALVMGEGTCEKRRDAEYGASPEQVADNGDDHSEGGLVENHVDSTMNMLGGGGSAGRKPLKSGMKELAVFREKVTEQHRQMGKGGKHHLGLEEPKKLRPPPARTPCQQELDQVLERISTMRLPDERGPLEHLYSLHIPNCDKHGLYNLKQCKMSLNGQRGECWCVNPNTGKLIQGAPTIRGDPECHLFYNEQQEARGVHTQRMQ | – | ~2.8 |
